Measurements: patent US7192733B2, “Methods and means for modulating PGE synthase activity” (Karolinska Innovations AB, priority 1998, dated 2007)

What was measured:
[1] = system: 17.5 kDa protein from sheep seminal vesicles (PGE synthase activity); settings: read-out: Km for PGH2; cited from earlier work
[2] = system: 180 kDa protein from sheep seminal vesicles (PGE synthase activity); settings: larger (180 kDa) protein; read-out: Km for PGH2; cited from earlier work
[3] = molecular target: T1, human PGE synthase (Homo sapiens, UniProt O14684); experiment: PGE synthase enzyme assay (inhibition of PGE2 formation from PGH2); type: biochemical; settings: 1 mM for 5 min prior to incubation; membrane fraction from bacteria expressing PGE synthase
T1 construct: made in house; host or cells: E. coli BL21 (DE3) pLysSL, vector pSP19T7LT; membrane fraction
T1 sequence (O14684 1-152): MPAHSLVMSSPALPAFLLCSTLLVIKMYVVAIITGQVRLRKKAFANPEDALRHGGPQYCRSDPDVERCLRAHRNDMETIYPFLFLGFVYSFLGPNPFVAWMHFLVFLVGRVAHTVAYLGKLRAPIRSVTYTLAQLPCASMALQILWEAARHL
Method: (§1) The protein sample was diluted in potassium inorganic phosphate buffer (0.1 M, pH=7.4) containing 2.5 mM reduced glutathione. The reaction (total volume=100 μl) was started by the addition of 10 μM PGH2 with or without 0.1 μCi 3H PGH2 and terminated with 60 μl acetonitrile/HCl, lowering the pH to 3.2. In order to determine the formation of either PGF2α, PGE2 or PGD2, an aliquot (60 μl) was analyzed by reverse-phase-HPLC combined with UV detection (195 nm) and/or radioactivity detection using an online β-RAM detector (Inus System, Inc.). The reverse-phase HPLC column was Nova-Pak C18 (3.9×150 mm, 4 μm particle size) obtained from Waters. The mobile phase was water, acetonitrile and trifluoroacetic acid (70:30:0.007, by vol) with a flow rate of 1 ml/min.
(§2) For analysis of 12-HHT, a mobile phase of methanol, water and acetic acid (70:30:0,01, by vol) was used and UV detection at 236 nm. The amounts of produced PGE2 and 12-HHT were quantified by integration of the areas under the eluted peaks at 195 and 236 nm, respectively.
(§3) The membrane fraction (0.02 mg total protein/ml) isolated from bacteria expressing PGE synthase was incubated for 2 min in the presence of PGH2 (10 μM including 1 μCi 3H PGH2) and reduced glutathione (2.5 mM).

[4] = system: PGE synthase expression in A549 cells; experiment: Induction of PGE synthase protein in A549 cells, Western blot; type: cell-based, human; settings: 1 ng/ml, 24 h
Method: Samples were diluted and boiled for two min in SDS-containing sample buffer (Laemmli, U. K. (1970) Nature 227, 680–5). Proteins were separated through 14% polyacrylamide gels (Novex) and electroblotted (Towbin, H., et al.(1979) PNAS USA 76, 4350–4) onto PVDF (Pall) membranes. Transfer efficiency was visualized using pre-stained standards (Novex). Membranes were then soaked for 1 h at 25° C. in Tris-buffered saline (100 mM Tris-HCl, pH=7.5, 150 mM NaCl) containing 0.1% (v/v) Tween and 5% (w/v) non-fat dried milk. The membrane was subsequently washed twice in 0.1% T-TBS followed by 1 h incubation at 25° C. with the indicated antiserum (1:2000 dilution) in 0.05% (v/v) T-TBS and 2% (w/v) non-fat dried milk. […]
In order to investigate whether or not PGE synthase may also be regulated by this cytokine, A549 cells were cultured for 24 h in the presence of 1 ng/ml IL-1β. Normal cells as well as cells treated with IL-1β were subsequently analyzed for PGE synthase expression by SDS-PAGE followed by Western blotting.
Total protein corresponding to 0.2×10^6 cells grown for 24 h in the presence (1 ng/ml) or absence of IL-1β was fractionated by SDS-PAGE and transferred to PVDF membrane. […] Also analyzed was the commercial available, partly purified, PGE synthase from sheep seminal vesicles (6 μg) as well as the membrane fraction from bacteria expressing human PGE synthase (5 μg).

[5] = system: PGH2; experiment: PGE synthase activity of fractions from cells expressing recombinant protein (PGH2 to PGE2, RP-HPLC); type: biochemical; settings: for PGE synthase activity: membrane fraction or microsomes of cells expressing the control protein
Method: as §1, §2, §3
In this experiment the various dilutions of the membrane fraction obtained from bacteria expressing PGE synthase were incubated in the presence of PGH2 (10 μM) and GSH (2.5 mM) for 2 min. The PGE2 formation was analyzed and quantified by RP-HPLC and UV detection at 195 nm as described in Materials and Methods above.
The membrane fraction obtained from bacteria expressing PGE synthase (0.02 mg/ml) was incubated with PGH2 for the indicated times in the presence (filled circles) or absence (open circles) of glutathione. Filled triangles represent non-enzymatic (buffer only) PGE2 formation after incubation with PGH2. The product formation was analyzed by RP-HPLC and PGE2 was detected and quantified using UV absorbance at 195 nm.

CCCCC[C@H](O)/C=C/[C@@H]1[C@@H](C/C=C\CCCC(=O)O)[C@@H]2C[C@H]1OO2 (relative stereo) [PGH2, 15(S)-hydroxy-9α, 11α-peroxidoprosta-5-cis-13-trans-dienoic acid]
Km [1]: 40 µM | Km [2]: 150 µM

CCN1C(=O)C=CC1=O [N-ethylmaleimide]
enzyme activity after treatment of the membrane fraction [3]: abolished

IL-1β: proinflammatory cytokine interleukin-1β
PGE synthase protein expression [4]: induced

MGST2: microsomal glutathione S-transferase 2 expressed in Sf9 cells, microsomes [reference compound]
PGE synthase activity [5]: no PGE synthase activity

B1: PGE synthase: human PGE synthase (SEQ ID NO: 2) expressed in E. coli, tested as bacterial membrane fraction (protein, listed as Homo sapiens)
chain: T1 sequence (O14684 1-152)
glutathione dependent PGE synthase activity ([5]; bacterial membrane fraction, PGH2, reduced glutathione): 0.25 µmol/min/mg | deduced specific activity ([5]; estimating that 1% of the bacterial membrane protein is MGST1-L1): 25 µmol/min/mg | specific activity under linear conditions (subtracting background formation) ([5]; membrane fraction 0.02 mg/ml, PGH2 10 μM, GSH 2.5 mM): 250 nmol/min/mg

B2: ratMGST1: rat microsomal glutathione S-transferase 1 expressed in bacteria, control membrane fraction (protein, UniProt P08011 2-155, looked up)
Microsomal glutathione …: ADLKQLMDNEVLMAFTSYATIILAKMMFLSSATAFQRLTNKVFANPEDCAGFGKGENAKKFLRTDEKVERVRRAHLNDLENIVPFLGIGLLYSLSGPDLSTALIHFRIFVGARIYHTIAYLTPLPQPNRGLAFFVGYGVTLSMAYRLLRSRLYL
PGE synthase activity [5]: no PGE synthase activity
